The supplement of paper PMC9942255
Where “and” joins values, the source holds several entries; their conditions need not be identical. Equal values may be shown once.

System: Bacillus subtilis DB104 (SP-AmyQ fusion secretion)
Assay: AmyQ secretion efficiency, weighted average sort bin (1 = best secretion, 10 = worst) (bin number (weighted average, 1-10)); higher = lower secretion efficiency
Outline: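 A B. subtilis DB104 library carrying amyE-integrated fusions of designed signal peptides to mature AmyQ was encapsulated at about 0.3 cells per ~65 nL alginate bead with fluorescein-starch and grown about 13 h at room temperature. Following nile red staining, occupied beads were flow-sorted as large particles into 10 equally populated bins by green/red fluorescence ratio, and the bin amplicons were Illumina-sequenced. The secretion score is the read-frequency-weighted average bin number normalised to beads per bin, leaving out low-abundance sequences.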

Sequence | AmyQ secretion efficiency
MMIKQNMSSCVICLSLLVFGTTAAHAEET | 2.9
MGLGKKLSVAVAASFMSLSISLPGVAAGFVFVQAAEG | 4.93
MRFTKFTFIMITVVGFLSVLGLAAVFPLTAQAEKA | 1.81
MKRLKRRKLIGIMLLTFAPSAFAKQD | 4.68
MRKKTKNRLISSVLSTVVISSPGAAGASSK | 3.33
MKKKLAAGLTASAIVGTTLVGGGAEAATI | 4.73
MKRLLVSLRVWMVFLMNWVTPDRKTAARAVY | 5.96
MKKWMAGLFLAAAVLLCLMVPQQIQGASS | 4.93 and 4.6 and 5.33
MTMLRKIIGWILLLCIIPLFAFTVIASGASK | 7.69
MAIIIAIIAAVIVIAALITFNVRNLSPG | 7.04
MKKRFSLIMMTGLLFGLTKRKKKKAFAAEK | 7.34
MPVLLSALLLLLFAFEPSASGKKL | 6.19
MLKRTSFVSSLKKSSAVLLSILLPSGQAHAQSA | 3.11
MNLRKILLSSALSLGMLVSAAPVLARKR | 5.51
MKKWMITIAMRTLAGIALFVFISPLKSHKT | 7.06
MKNMSCKTNLVVSVTLFFSFLTIGPLAHAQNS | 1.06
MTSSGGMFIVFICFFVLFSVHPIAAAAADS | 6.41
MRSYIKVLTMCFLGLILFVPTALAANR | 2.08
MLCVMMLLFSAIASFPVSAQSKDQ | 5.6
MKKFMNFSSVMLATALFLGLTPAGANAADL | 4.23
MPYLKRVLLLLVTGLFMSLFFLIAVTATASAQTG | 1.09
MKKAAAVLLSLGLVFGFSYGAGHVAETKTK | 5.95
MKKIWIGMLAAAVLLLMVPKVSLADAA | 3.23 and 2.34 and 3.08
MKLAKRVSALTPSTTLAITIKAKEL | 8.5
MKLKKRVSMFLVALTMCGGLFVTPFKAVKT | 6.39
MMIKQCVICLSLLVFGTTKAHAEET | 2.63

Sequence | AmyQ secretion efficiency
MKLAKRVSALTPSTTLAITAKDKEL | 6.63
MSTGILAAGLTASAIVGTTLVVTPAEAATI | 4.73
MLKKKWMVGLLAGCLAAGGFSYNKFATEN | 7.42
MKLRKVLTGSVLSLGLLVSASPNFATSP | 5.36
MLKKIALTLCPAIVGSLLFFTAPNSAHVS | 6.42
MLCVMMLLFSAIASFPVSAQAAPQ | 4.18
MLSSKWMVGLLAGCLAAGGFSYNAFATEN | 3.83
MKRLLSTLLIGITFAPSAFAKQD | 2.73
MKLSVKIAGVLTVAAAAMTAKMYATKKGN | 8.52
MTMLRKIIGWILLLCIIPLFAFTVIASLKEV | 3.47
MKLWMRKTLVVLFTIVTFGLVSPPAALMYDKP | 3.73
MLCVMMLLFSAIASFPVSAQTKDQ | 6.25
MTKRGIQAFAGGIILATYLTDEDQAAAV | 7.21
MKRLLVSLRVWMVFLMNWVTPKRKTAAAAVY | 5.43
MLKKIALTLCPAIVGSLLFFTAPASAHKK | 1.72
MKSKWMSGLLLVAVGFSFTQVMVHWGET | 5.88
MFNRLFRVCFLAALIMAFTVYAQKP | 6.93
MGRFLIGAGVAAVILSGWFIADHQTHSQEM | 6.17
MKWMCKKCCAAVLLAGGAAQAEAV | 5.26
MNFKKTTSIVVSALSISALALSVSGVASAHEI | 3.35
MGMKKKLSLGVASAAGGTWAAFN | 8.23
MGLGTTFLSVAVAASFMSLSISLPGVQAAEG | 2.45
MKKKIVAGLAVSAVVQDDPSAAPAEAKTI | 7.07
MKKLSVAVAASFMSLSISLPGVQAAEG | 1.57
MAAQTDYKKQVVGILLSLAFVLRRRKFSERHE | 7.65
MKKRKKKSLLALLAVVAFAFTDSSKAKAAEA | 2.95

Sequence | AmyQ secretion efficiency
MMKKGRSRQQLTATVLFGTCAVDVPGIISPKTAEAASQ | 7.68
MRKKRVILAAFILVGSTLGAFSFSSDASAKHV | 2.62
MKKLKRKKVILGALGTSYISADSS | 7.53
MKKRLIAPMLLSAASLAFFAMSGSAQPAAY | 5.92
MKRLFMKASLVLFAVVFVFAVKGAPAKAADD | 3.6
MFNLQVMLALTAAAGLGLTALHSAPAAKAAPL | 3.11
MKKAFILSAAAAVGLFTFDDDQQASAKEL | 2.77
MKKIWIGMLAAAVLLLMVPKVVLADAA | 3.66
MKWMCSICCAAVLLAGGAAQYEAV | 7.08
MKRKLLSSLAISALSLGLLVSAPTAGFAAES | 3.25
MKKRLIAPKLLSAASLAFFAMSGSAQAAAY | 3.27
MKKMSNSTNSMSVLMAFIICLSLILSVLAAPPSGAKAESV | 1.73
MKVLLSALLLLLFAFFTSFTLTLFEPSASGKKL | 7.36
MKKQIKKKKTAVVLGSTLFAGAASAQSI | 7.3
MTMLRKIIGWILLLCIIPLFAFTVIASNKEV | 5.99
MRKKLKWLSFLLGFIILLFLFKYQFSNNKR | 5.8
MNLRKILLSSALSLGMLVSAAPCLATSS | 2.03
MKLRKMVLTGSVLSLGLLVSASPAFATSP | 1.54
MTMLRKIIGWILLLCIIPLFAFTVIRSGKEV | 7.52
MRKNRILALFVLSLGLLFSFMVTPVSAASK | 1.99
MKLSVKIAGVLTVAAAAMTAKMYATAAGN | 6.91
MMKKLFHSTLIVLLFFSFFGVQPIHAAED | 3.19
MKNMSCKLKKSVTLFFSFLTIGPLAHAQNS | 3.34
MKRLLVSLRVWMVFLMNWVTPDRKTAAADED | 6.67
MKRLRRKRKKGIMLLTFAPSAFAKQD | 7.07
MNKKYFVLIVCIIFTSALFPTFSSVTHAQG | 1.15

Sequence | AmyQ secretion efficiency
MKKQIITATTAVVLGSTLFAGAASYQSI | 6.33
MKRSINSIFITCLLITLLTMGGMIASPASAAGT | 1.88
MGLGKKLSVAVAASFMSLSISLPGVQKAEG | 3.62
MKKLILAFILSAAAAVGLFTFGGVQQASAKEL | 4
MKRTWNVCLTALLSVLLVAGSVRRRRKRKHAEAKKP | 8.2
MKTKTLFIFSAILTLSIFAPNETFAQRR | 1.31
MKKKQVMLALTAAAGLGLTALHSAPAHKAAPL | 6.85
MKLWMRKTLRRKKRKVTFGLVSPPAALMADKP | 7.28
MNLRKILLSSALSLGMLVSAAPALATSS | 2.26
MRNLTKTSLLLAGLCTAAQMVFVTHWSAEES | 8.27
MKKWMITIAMTMLILAGIALFVFISPLKSHKT | 1.1
MKVLLSALLLLLFAFEPSDSGKKL | 6.13
MKQGKFSVFLILLLMLTLVVAPKEKEEAASS | 7.98
MLKKKWMVGLLAGCLAAGGFSYNAFAKRK | 5.47
MKKRLIAPMLLSAASLAFFAMSGSGQAAAY | 5.16
MKKTIMSFVAVAALSTTAFGAHASTKEI | 5.13
MKRLLSTLLIGIMLLTFAPSAFCKQD | 2.6
MKSKGSIMACLILFSFTITTFINTETISTFSN | 7.54
MKRRTRYKKQVVGILLSLAFVLFVFSFSERHE | 6.68
MLCVMMLLFSAIASAQAKDQ | 6.18
MLCVMMLLFSAIASFPVSTQAKDQ | 5.3
MKKAAAVLLSLGLVFGFSYGAGHVYEAKTK | 5.94
MKRITINITIITMFIAAAVISLTGTAEAAEK | 2.69
MKRFSTAYLLLGILCSAAVFLIGAPSRALGADD | 3.2
MRPVFPLILSAVLFLSCFFGARQTEASYSKR | 2.56
MKLRKVLTGSVLSLGLLIVSASPAFATSP | 2.48

Sequence | AmyQ secretion efficiency
MRSYIKTFNVLTMCFLGLILFVPTALADNS | 2.59
MKKQIITATTAVVLGSTLFAGATGFAFAPASAQSI | 3.63
MTLSVIIAGVLTVAAAAMTAKMYATAKGN | 6.67
MKRIRIPMTLALSAALIIALLSFASAEEN | 5.6
MGMKRVITCVMAASLTLGSLLPAGYATAKED | 6.01
MNKKYFVLIVCIIFTSALFPTFSSATAAQG | 1.33
MLKKIALTLCPAIVGSLLFFTAPKSAHVS | 5.03
MPYLKRVLLLLVTGLFMSLFAVTATASWQTG | 2.84
MKKKQVMLALTAAAGLGLTALHSAPAEKAAPL | 6.32
MKSKGSIMACLILFSFTITTFINTETISGFSN | 6.11
MKWMCSICCAAVLLAGGAPQAEAV | 2.41
MKKRLIGFLVLVPALIMSGITLIEINKK | 7.02
MKKRRSLIMMTGLLFGLTSPAFAAEK | 3.58
MRHKIITFILAVVVIIIIRKRKKRRGGSEATSK | 4.98
MRPVFPLILSAVLFLSCFKKKRRTRASASKR | 6.66
MTTKFKKKRRFLLCFMPAAKIEHTQASLL | 7.76
MNSCSQLIVCSLAAILLLIPSVSFAADS | 4.9
MRKYTVIASILLSFLSVLSGGHHESKAFPV | 3.25 and 4.96
MFKKHQRRQRIIFLLASAVLAKPIEAHTV | 6.33
MPYLKRVLLLLVTGLFMSLFAVTATASAQTD | 1.91
MNKFLKSNFRFLLAAALGISLLKRSNFIKASND | 6.59
MKKRLIGFLVLVPALIMSGITLIENNKK | 6.74
MPIKKKVMMCLAVTLVFGSMSFPTLTNSGGFPE | 5.65
